From the supplement of paper PMC9112550, “Optimization of the antimicrobial peptide Bac7 by deep mutational scanning” (BMC Biology, 2022)

Test system: Escherichia coli TOP10
Experiment: shrunken log2 fold change of peptide-encoding DNA abundance (4.5 h post-induction vs induction); higher = less antimicrobial activity (less host growth inhibition)
Settings: time post-induction: 4.5 h; library: site-saturation at positions 5, 18, 19, 20
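Also: peptides expressed intracellularly from a pBAD plasmid library in pooled LB shake-flask culture, induced with 0.3% L-arabinose, DNA abundance read by NGS, three biological replicates, DESeq2 with apeglm shrinkage.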

Sequence | shrunken log2 fold change
RRIRYRPPRLPRPRPRPQDSPRP | -0.0125
RRIRFRPPRLPRPRPRPWMMPRP | -0.897
RRIRSRPPRLPRPRPRPTMEPRP | 0.317
RRIRIRPPRLPRPRPRPTRMPRP | 0.0519
RRIRPRPPRLPRPRPRPRQEPRP | 3.83
RRIRWRPPRLPRPRPRPGWLPRP | 0.375
RRIRMRPPRLPRPRPRPLCCPRP | 0.104
RRIRHRPPRLPRPRPRPFVAPRP | 1.81
RRIRDRPPRLPRPRPRPDSSPRP | 0.109
RRIRMRPPRLPRPRPRPEARPRP | 1.76
RRIRSRPPRLPRPRPRPVHHPRP | 0.0874
RRIRYRPPRLPRPRPRPYLTPRP | -0.305
RRIRWRPPRLPRPRPRPNAFPRP | 0.0579
RRIRWRPPRLPRPRPRPPCEPRP | 0.379
RRIRIRPPRLPRPRPRPGACPRP | -0.243
RRIRWRPPRLPRPRPRPEAFPRP | 0.488
RRIRHRPPRLPRPRPRPMLMPRP | -0.121
RRIRNRPPRLPRPRPRPQKPPRP | 0.0646
RRIRTRPPRLPRPRPRPYITPRP | -1.19
RRIRFRPPRLPRPRPRPYETPRP | -0.185
RRIRCRPPRLPRPRPRPAGFPRP | 0.1
RRIRGRPPRLPRPRPRPISHPRP | -0.0449
RRIRWRPPRLPRPRPRPPTMPRP | 0.264
RRIRTRPPRLPRPRPRPLYNPRP | -0.715
RRIRIRPPRLPRPRPRPARKPRP | 0.462

Sequence | shrunken log2 fold change
RRIRDRPPRLPRPRPRPGETPRP | 0.0408
RRIRTRPPRLPRPRPRPDSEPRP | -0.182
RRIRRRPPRLPRPRPRPYNAPRP | -0.964
RRIRHRPPRLPRPRPRPRTCPRP | -0.0538
RRIRFRPPRLPRPRPRPFKVPRP | -0.327
RRIRQRPPRLPRPRPRPPVTPRP | 0.199
RRIRGRPPRLPRPRPRPCLSPRP | 0.0424
RRIRYRPPRLPRPRPRPYSQPRP | -0.505
RRIRDRPPRLPRPRPRPVINPRP | -0.0846
RRIRPRPPRLPRPRPRPHWPPRP | 0.0791
RRIRYRPPRLPRPRPRPSHSPRP | -0.0971
RRIRLRPPRLPRPRPRPVWPPRP | 0.422
RRIRWRPPRLPRPRPRPIWNPRP | -0.114
RRIRFRPPRLPRPRPRPYSRPRP | -0.187
RRIRHRPPRLPRPRPRPGPDPRP | -0.227
RRIRTRPPRLPRPRPRPLMMPRP | -0.314
RRIRCRPPRLPRPRPRPVNYPRP | -0.376
RRIRYRPPRLPRPRPRPPGPPRP | 0.455
RRIRCRPPRLPRPRPRPCYLPRP | -0.684
RRIRRRPPRLPRPRPRPFIMPRP | -0.251
RRIRCRPPRLPRPRPRPMLDPRP | 0.0729
RRIRERPPRLPRPRPRPSPYPRP | -0.277
RRIRSRPPRLPRPRPRPYSKPRP | -0.994
RRIRTRPPRLPRPRPRPKCSPRP | -0.0669
RRIRKRPPRLPRPRPRPEFRPRP | 0.129

Sequence | shrunken log2 fold change
RRIRKRPPRLPRPRPRPHLEPRP | -0.0191
RRIRERPPRLPRPRPRPFFSPRP | -0.358
RRIRQRPPRLPRPRPRPHNQPRP | -0.644
RRIRERPPRLPRPRPRPFMVPRP | -0.599
RRIRPRPPRLPRPRPRPGMRPRP | 0.852
RRIRGRPPRLPRPRPRPFKCPRP | -0.307
RRIRHRPPRLPRPRPRPHCDPRP | -0.0744
RRIRDRPPRLPRPRPRPMRGPRP | 0.937
RRIRQRPPRLPRPRPRPAKIPRP | 0.00963
RRIRWRPPRLPRPRPRPIIHPRP | -0.463
RRIRPRPPRLPRPRPRPSGMPRP | -0.183
RRIRPRPPRLPRPRPRPVHYPRP | -0.121
RRIRDRPPRLPRPRPRPMMNPRP | -0.00862
RRIRARPPRLPRPRPRPTQEPRP | 0.0329
RRIRMRPPRLPRPRPRPSCYPRP | -0.348
RRIRWRPPRLPRPRPRPMHQPRP | 0.067
RRIRNRPPRLPRPRPRPYYWPRP | -0.367
RRIRSRPPRLPRPRPRPTCPPRP | 0.0454
RRIRERPPRLPRPRPRPYGYPRP | -0.0695
RRIRNRPPRLPRPRPRPTDYPRP | -0.409
RRIRLRPPRLPRPRPRPNDQPRP | -0.19
RRIRERPPRLPRPRPRPPKSPRP | 0.21
RRIRPRPPRLPRPRPRPVEEPRP | 0.54
RRIRHRPPRLPRPRPRPEVEPRP | -0.00133
RRIRNRPPRLPRPRPRPGHQPRP | -0.0155

Sequence | shrunken log2 fold change
RRIRHRPPRLPRPRPRPAACPRP | 0.066
RRIRQRPPRLPRPRPRPEMTPRP | 0.0231
RRIRLRPPRLPRPRPRPAVYPRP | 0.00171
RRIRTRPPRLPRPRPRPWVAPRP | -0.0456
RRIRQRPPRLPRPRPRPQFQPRP | -0.265
RRIRRRPPRLPRPRPRPLRNPRP | 0.94
RRIRVRPPRLPRPRPRPNWLPRP | -0.105
RRIRYRPPRLPRPRPRPIWQPRP | -0.105
RRIRGRPPRLPRPRPRPGQFPRP | -0.00612
RRIRLRPPRLPRPRPRPRRIPRP | 0.214
RRIRCRPPRLPRPRPRPAYYPRP | -0.476
RRIRLRPPRLPRPRPRPWDSPRP | -0.145
RRIRSRPPRLPRPRPRPDVQPRP | -0.147
RRIRKRPPRLPRPRPRPQPSPRP | 0.567
RRIRMRPPRLPRPRPRPLWYPRP | 0.205
RRIRIRPPRLPRPRPRPGKEPRP | -0.0221
RRIRTRPPRLPRPRPRPGKIPRP | 0.0168
RRIRERPPRLPRPRPRPFQWPRP | 0.0371
RRIRERPPRLPRPRPRPDEPPRP | -0.0946
RRIRPRPPRLPRPRPRPRDSPRP | 0.334
RRIRGRPPRLPRPRPRPKAFPRP | 0.157
RRIRNRPPRLPRPRPRPPKFPRP | -0.0082
RRIRHRPPRLPRPRPRPAFDPRP | -0.00345
RRIRIRPPRLPRPRPRPACWPRP | 0.222
RRIRCRPPRLPRPRPRPGHDPRP | -0.00827

Sequence | shrunken log2 fold change
RRIRCRPPRLPRPRPRPPASPRP | 0.723
RRIRYRPPRLPRPRPRPVTLPRP | -0.713
RRIRYRPPRLPRPRPRPHRLPRP | -0.0157
RRIRPRPPRLPRPRPRPILKPRP | -0.14
RRIRMRPPRLPRPRPRPYWEPRP | -0.0124
RRIRMRPPRLPRPRPRPPLCPRP | 1.72
RRIRMRPPRLPRPRPRPYCKPRP | -1.02
RRIRRRPPRLPRPRPRPGERPRP | 0.0829
RRIRERPPRLPRPRPRPHTLPRP | -0.571
RRIRDRPPRLPRPRPRPTAEPRP | 1.4
RRIRFRPPRLPRPRPRPMHKPRP | -0.263
RRIRLRPPRLPRPRPRPYERPRP | -0.148
RRIRGRPPRLPRPRPRPHKYPRP | -0.216
RRIRIRPPRLPRPRPRPNSLPRP | -0.457
RRIRQRPPRLPRPRPRPARWPRP | 0.781
RRIRSRPPRLPRPRPRPRLIPRP | 0.288
RRIRCRPPRLPRPRPRPANGPRP | -0.0497
RRIRGRPPRLPRPRPRPVQYPRP | 0.118
RRIRQRPPRLPRPRPRPINPPRP | -0.357
RRIRTRPPRLPRPRPRPMHKPRP | -0.271
RRIRIRPPRLPRPRPRPHLPPRP | -0.0411
RRIRDRPPRLPRPRPRPHEKPRP | -0.0396
RRIRPRPPRLPRPRPRPWCKPRP | -0.162
RRIRYRPPRLPRPRPRPEWPPRP | -0.0693
RRIRMRPPRLPRPRPRPKWWPRP | 0.755
